Measurements as given in paper PMC9225624 (Autophagy, 2021).
Substitutions are numbered along the chain they refer to. Read-outs that look alike come from different tables or passages of the source.

Key:
[1] = molecular target: T1, Arabidopsis ATG8f (tag-free) (Arabidopsis thaliana, UniProt Q8VYK7 1-117); assay: pull-down
T1 sequence: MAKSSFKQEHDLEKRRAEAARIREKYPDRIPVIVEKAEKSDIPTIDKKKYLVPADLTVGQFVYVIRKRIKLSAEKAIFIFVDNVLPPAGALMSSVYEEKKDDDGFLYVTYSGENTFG

[2] = molecular target: T1, Arabidopsis ATG8f (tag-free); assay: SEC
[3] = molecular target: T2, GST-ATG8f (Arabidopsis thaliana, UniProt Q8VYK7 1-117); assay: pull-down
T2 sequence (looked up): T1 sequence

[4] = molecular target: T2, GST-ATG8f; assay: pull-down; remark: listed apart in the source
[5] = molecular target: T3, GST-ATG8b (Arabidopsis thaliana, UniProt Q9XEB5 1-117); assay: pull-down
T3 sequence (looked up): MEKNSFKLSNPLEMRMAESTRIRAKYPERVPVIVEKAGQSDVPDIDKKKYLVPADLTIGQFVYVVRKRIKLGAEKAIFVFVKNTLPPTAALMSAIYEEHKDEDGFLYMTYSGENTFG

[6] = molecular target: T4, GST-ATG8e (Arabidopsis thaliana, UniProt Q8S926 1-118); assay: pull-down
T4 sequence (looked up): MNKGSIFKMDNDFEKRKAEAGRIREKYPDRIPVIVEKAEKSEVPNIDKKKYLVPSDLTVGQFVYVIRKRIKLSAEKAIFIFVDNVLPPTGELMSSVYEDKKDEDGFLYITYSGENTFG

[7] = molecular target: T5, GST-ATG8i (Arabidopsis thaliana, UniProt Q9LRP7 1-115); assay: pull-down
T5 sequence (looked up): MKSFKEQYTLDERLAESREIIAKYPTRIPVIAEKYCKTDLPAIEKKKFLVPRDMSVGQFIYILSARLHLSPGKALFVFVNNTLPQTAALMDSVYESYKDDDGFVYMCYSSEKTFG

[8] = molecular target: T6, GST-ATG8a (Arabidopsis thaliana, UniProt Q8LEM4 1-117); assay: pull-down
T6 sequence (looked up): T3 sequence (looked up) with E2A, N4S, L8I, M14A, A17S, T20S, A24E, E28D, V30I, I58V

[9] = molecular target: T7, GST-ATG8c (Arabidopsis thaliana, UniProt Q8S927 1-119); assay: pull-down
T7 sequence (looked up): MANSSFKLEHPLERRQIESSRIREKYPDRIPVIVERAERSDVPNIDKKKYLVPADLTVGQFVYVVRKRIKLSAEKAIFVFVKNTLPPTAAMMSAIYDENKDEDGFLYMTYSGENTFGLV

[10] = molecular target: T8, GST-ATG8d (Arabidopsis thaliana, UniProt Q9SL04 1-120); assay: pull-down
T8 sequence (looked up): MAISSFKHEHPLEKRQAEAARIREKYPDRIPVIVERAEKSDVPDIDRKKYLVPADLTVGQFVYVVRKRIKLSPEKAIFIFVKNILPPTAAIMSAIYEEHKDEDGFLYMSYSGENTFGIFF

[11] = molecular target: T9, GST-ATG8g (Arabidopsis thaliana, UniProt Q9LZZ9 1-117); assay: pull-down
T9 sequence (looked up): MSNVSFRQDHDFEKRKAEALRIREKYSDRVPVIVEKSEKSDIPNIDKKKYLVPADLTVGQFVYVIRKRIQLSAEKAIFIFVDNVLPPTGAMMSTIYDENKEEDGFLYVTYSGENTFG

[12] = molecular target: T10, GST-ATG8h (Arabidopsis thaliana, UniProt Q8S925 1-119); assay: pull-down
T10 sequence (looked up): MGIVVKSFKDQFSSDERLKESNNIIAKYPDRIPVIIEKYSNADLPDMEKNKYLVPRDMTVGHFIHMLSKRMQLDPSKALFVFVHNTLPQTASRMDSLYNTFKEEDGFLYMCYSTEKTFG

[13] = molecular target: T11, GST-ATG8f Y26E (Arabidopsis thaliana, UniProt Q8VYK7 1-117, Y26E); assay: pull-down
T11 sequence (looked up): T1 sequence with Y26E

[14] = molecular target: T12, GST-ATG8f K47E (Arabidopsis thaliana, UniProt Q8VYK7 1-117, K47E); assay: pull-down
T12 sequence (looked up): T1 sequence with K47E

[15] = molecular target: T13, GST-ATG8f R29E (Arabidopsis thaliana, UniProt Q8VYK7 1-117, R29E); assay: pull-down
T13 sequence (looked up): T1 sequence with R29E

[16] = molecular target: T14, GST-ATG8f (Y26E R29E) (Arabidopsis thaliana, UniProt Q8VYK7 1-117, Y26E | R29E); assay: pull-down
T14 sequence (looked up): T1 sequence with Y26E, R29E

Measured: binding result

GVSEWDPILEE [NBR1 AIM peptide (657-667 aa)]
binds: [1]

B1: UBA domain (619-704 aa) of NBR1 (domain or fragment, Arabidopsis thaliana, UniProt Q9SB64 619-704, looked up)
chain: EITMLKELEEMGFKEIDLNKEILRDNEYNLEQSVDALCGVSEWDPILEELQEMGFCDDVTNKRLLKKNNGSIKGVVMDLLTGEKEA
binds: [2] | [3]

B2: SH3 domain of SH3P2, SH3P2 (279-368) (domain or fragment, Arabidopsis thaliana, UniProt Q8VWF1 279-368, looked up)
chain: SYEEANGVFASQMHDTSTDSMGYFLGEVLFPYHGVTDVELSLSTGEYVVVRKVTGSGWAEGECKGKAGWFPYGYIERRERVLASKVSEVF
not listed: [1] | [3]
binds: all other assays above
